# Test results: the DeepSol protein solubility set
# Test: soluble on expression in E. coli; label from the status in PepcDB or PDB records
row,Sequence,soluble on expression in E. coli
1,MSELDQLRQEAEQLKSQIREARKSANDTTLATVASNLEPIGRIQMRTRRTLRGHLAKIYAMHWASDSRNLVSASQDGKLIVWDSYTTNKVHAIPLRSSWVMTCAYAPSGSFVACGGLDNICSIYSLKTREGNVRVSRELPGHTGYLSCCRFLDDNQIVTSSGDMTCALWDIETGQQCTAFTGHTGDVMSLSLSPDFRTFISGACDASAKLWDIRDGMCKQTFPGHESDINAVAFFPSGNAFATGSDDATCRLFDIRADQELAMYSHDNIICGITSVAFSKSGRLLFAGYDDFNCNVWDSMRQERAGVLAGHDNRVSCLGVTEDGMAVCTGSWDSFLKIWN,soluble
2,MSELSFAQLLEESFAATPRLGDVVKGTVVAIQKGYVIVDTGFKSESSIPAEEFINAQGELEVQIGDQVDVVLKAVEDGFGETVVSRGDAKRNEAWIALEKAFEEQATVIGFVNGKVKGGFTVELNGVRAFLPGSLVDTRPVRDSLNLEGKELEFKVIKLDQKRNNVVVSRRAVIESENSQDRDEVLANLVEGSVITGTVKNLTDYGAFVDLGGVDGLLHITDMAWKRVKHPSEVVAVGQEVTVKVLKFDKEKTRVSLGLKQLGQDPWAAIAHNHPVNSKLTGKVTNLTDYGCFVEILDGVEGLVHVSEMDWTNKNIHPSKVVSVGDVVEVMVLEVDEERRRISLGLKQCKANPWEHFAATHNKNDKVTGKIKSITDFGIFIGLEGGIDGLVHLSDISWNVTGEEAVRNYKKGDEVEAVVLQVDAAKERISLGIKQLESDPFTNFVDSTKKGAILTGKVVDVDTKGVKVELEGGVEAFIRANEATRERVEDITTVISVGDSIEAKYTGIDRKSRLVNLSVRAKDEAEESAALAQVNKQDVEMPNAMTAAFQAAKGELEHHHHHH,soluble
3,MSELTKAQQYNFNKLQKKIRRNTGNAIADYNMIEDGDRIMVCLSGGKDSFTMLDILMSLKKSAPISFDLIAVNLDQKQPGFPAHILPEYLEKLGVEYKIVEEDTYSIVQDKIPEGKTTCSLCSRLRRGILYRTAKELGATKIALGHHRDDILETMFLNMFYGGKLKGMPPKLVSDNGEHVVIRPLAYCREKDIIKYADMRDYPIIPCNLCGSQPNMQRQNVKQMLNTWDKQFPGRIETMFTAMQNVVPSHLADFNTFDFKSINRDSGVINGGDIGFDKEEMPTLPVDADDAVAEFDPSLKLDVVNVD,not soluble
4,MSELWYTEKQTKNFGITMKVNKTLHTEQTEFQHLEMVETEEFGNMLFLDGMVMTSEKDEFVYHEMVAHVPLFTHPNPEHVLVVGGGDGGVIREILKHPSVKKATLVDIDGKVIEYSKKFLPSIAGKLDDPRVDVQVDDGFMHIAKSENQYDVIMVDSTEPVGPAVNLFTKGFYAGIAKALKEDGIFVAQTDNPWFTPELITNVQRDVKEIFPITKLYTANIPTYPSGLWTFTIGSKKYDPLAVEDSRFFDIETKYYTKDIHKAAFVLPKFVSDLIKLEHHHHHH,soluble
5,MSEMQMDCALDLMRRLPPQQIEKNLIDLIDLAPDLCEDLLSSVDQPLKIAKDKEHGKDYLLCDYNRDGDSYRSPWSNSYYPPLEDGQMPSERLRKLEIEANYAFDQYREMYYEGGVSSVYLWDLDHGFAAVILIKKAGDGSKMIRGCWDSIHVVEVQEKTTGRTAHYKLTSTAMLWLQTNKQGSGTMNLGGSLTRQQEQDANVSESSPHIANIGKMVEEMENKIRNTLNEIYFGKTKDIVNGLRSTQSLADQRQQAAMKQDLAAAILRRNVKPESN,not soluble
6,MSEPIDILIAGAGIGGLSCALALHQAGIGKVTLLESSSEIRPLGVGINIQPAAVEALAELGLGPALAATAIPTHELRYIDQSGATVWSEPRGVEAGNAYPQYSIHRGELQMILLAAVRERLGQQAVRTGLGVERIEERDGRVLIGARDGHGKPQALGADVLVGADGIHSAVRAHLHPDQRPLSHGGITMWRGVTEFDRFLDGKTMIVANDEHWSRLVAYPISARHAAEGKSLVNWVCMVPSAAVGQLDNEADWNRDGRLEDVLPFFADWDLGWFDIRDLLTRNQLILQYPMVDRDPLPHWGRGRITLLGDAAHLMYPMGANGASQAILDGIELAAALARNADVAAALREYEEARRPTANKIILANREREKEEWAAASRPKTEKSAALEAITGSYRNQVERPRLEHHHHHH,soluble
7,MSEPIPPFRYAPIVCSEQSTIVAEFVPEASGVREAGYQSEAELEAAFITQLQGQAYEYLSITSEAALLANLRRQLEKLNKVTLSDAEWEGFFSTCIAGAHDGIVQKTARIQEDHVQVLKRDDGTIKNMCLLDKGNIHNNILQVMNQYAVEGARGNRYDVTVLVNGLPMVHVELKRRGVDIREAFNQINRYQRDSFWAGSGLFDYVQLFVISNGTLTKYYSNTVRAGHVEEQSNKRSKSKTSNSFSFAIWWADAKNQPITELTSFTKTFFAKHSLLNVLTKYCVFNANRKLLVMRPYQIVAAERILQRIVTATHQQQLGTVAAGGYIWHTTGSGKTLTSFKVAQLACGLGVIDKVLFVVDRKDLDYQTMREYESFEKGAANSNTSTAVLQRQLEDSDVRIIITTIQKLSRFVAKHKQHPVYGAHVAVIFDECHRSQFGDMHTEITRAFQRYHLFGFTGTPIFAENAGSTQNPMRRTTQQTFGDTLHTYTIVDAINDKTVLPFRIDYINTIKSQPNINDKQVAAIDTERALLAPERIRQIVSYIREHFDQKTKRASIYRHEGQRLQGFNALLATASIDAAKRYYAELMAQQKDLPEAQRLKVGLIYSVAANEGDGDELLAEEEFETERLDQDARNFLEAAIQDYNALFGTSFDTSADKFQNYYKDVSERLKKRKLDILIVVNMFLTGFDATTLNTLWVDKRLKAHGLIQAYSRTNRILNSVKSYGNIVSFRNLEQETNEALALFGNKDAKGIVLLRPYAEYYKEYEERVGELVAAFPLGKVIVGEAAQKAFITLFGSILRLKNILTAFDDFAGQEVLTEREFQDYQSLYLNLYAEFRSASAAEKESINDDVVFEIELIKQVEINVDFILLLVEQYVKKKGTGEDKDIRATIERAIHSSPSLRNKKELIEQFVDAVSMKATVDAQWQAFVAVKQSQELEGIIAEENLNAEATREFIANAFRDGSIPATGTAITKILPPVSRFSKNNGHAAKKQTVLDKLATFFERYFGLV,soluble
8,MSERMWGFGLTEEEASRSIREKMSINDSPTHGHDIHVTRDLVKHHLSKSDMLTDPSQEVLEERTRIQFIRWSHTRIFQVPSEVMDDVMQERIDQVRRSVSHLMCDSYNDPSFRTSCSEC,not soluble
9,MSESQLRKGAVELIVLGLLSSRPSYGGQLVERFREEAGLEISTGTLYPLLARLRKSGLVVTAWEESPVGPPRKIYKLAKPGKNRLLQMRREWEALDCAVKRTTQKGIR,not soluble
10,MSESSHVGLWNRCLEIIRDNVPESTYKTWFVPIVPLKYEDKTLIVQVPSQFFYEFLEDKFVDLLRKTLYKVIGDGTKLMYNVLVDKSSGATVNQESTTRSTAIPQSGLPRVDERKAPGLLRAPAVQDLDPHLNPNYNFETFIEGYSNKLSRSVAEAVAENPAKTVFNPLFLHGASGVGKTHLANAIGTRIKELYPDKRVLYVSAHLFQVQYTDSVRNNTTNDFINFYQTIDVLIIDDIQEFAGVTKTQNTFFHIFNHLHQNGKQLILTSDRAPVLLQGMEERLLTRFKWGMVAELEKPTVELRKNILRNKIHRDGLQFPSEVIDYIAENVNESVRDLEGIVISIMAHSTIYNKEIDLDLAQRIVRKVVRCETKAVTIDDIINVVCKHFDLESSAIHTKSRKREVVQARQVAMYLAKTHTDFSTSKIGKFIGNKDHATVLHACKTVKGQCEVDKGFRSDLENIETLLKKRNVSNGERLEHHHHHH,soluble
11,MSEYPILPSTLIPADPRFGCGPSKVRPAQLNAIVNAGADVIGTSHRQPAVKNIVGSIREGLSSLFSLPDGYEIVLSLGGATAFWDAATFGLIEKKSGHLTFGEFSGKFAKASAQAPWLDEPTIISAEPGDTPTPVAMEGCDVIAWAHNETSTGAMVPVIRPENSDGQLVAIDATSGAGGLPVDMHNADVYYFSPQKCFASDGGLWLAAMSPAALERIEKINASDRFIPAFLNLQTAVDNSRKNQTYNTPAVGTLLMLENQVEWMNANGGLDAMVERTTANSSALYEWAEKRAETTPYVTDPAKRSLVVGTIDFDDSIDAAALAKVLRANGILDVEPYRKLGRNQLRIGMFPAIDTADMDTLTAAIDYVLDNGFAQA,not soluble
12,MSFDGFFLHHIVEELRSELVNGRIQKINQPFEQELVLQIRSNRQSHRLLLSAHPVFGRIQLTQTTFENPAQPSTFIMVLRKYLQGALIESIEQVENDRIVEITVSNKNEIGDHIQATLIIEIMGKHSNILLVDKSSHKILEVIKHVGFSQNSYRTLLPGSTYIAPPSTKSLNPFTIKDEKLFEILQTQELTAKNLQSLFQGLGRDTANELERILVSEKLSAFRNFFNQETKPCLTETSFSPVPFANQVGEPFANLSDLLDTYYKDKAERDRVKQQASELIRRVENELQKNRHKLKKQEKELLATDNAEEFRQKGELLTTFLHQVPNDQDQVILDNYYTNQPIMIALDKALTPNQNAQRYFKRYQKLKEAVKYLTDLIEETKATILYLESVETVLNQAGLEEIAEIREELIQTGFIRRRQREKIQKRKKLEQYLASDGKTIIYVGRNNLQNEELTFKMARKEELWFHAKDIPGSHVVISGNLDPSDAVKTDAAELAAYFSQGRLSNLVQVDMIEVKKLNKPTGGKPGFVTYTGQKTLRVTPDSKKIASMKKS,not soluble
13,MSFDKQNLIWIDLEMTGLDPEKERIIEIATIVTDKNLNILAEGPVLAVHQSDELLNKMNDWCQKTHSENGLIERIKASKLTERAAELQTLDFLKKWVPKGASPICGNSIAQDKRFLVKYMPDLADYFHYRHLDVSTLKELAARWKPEILEGFKKENTHLALDDIRESIKELAYYREHFMKLDLEHHHHHH,soluble
14,MSFFKKLAASAGIGAAKVDTILEKDAYFPGEEVQGTVHVKGGKIAQDIRYIDLQLSTRYVIVKDDEEHRKYATIHSFRVTGSFTIQPGEEHQFPFTFTLPLDTPITVGKVEVAVVTDLDIQGGIDKSDHDRIFVEAHPWIENVLEAIENLGFRLNEADCEQAPYFQRRFPFVQEFEFVPTSGYYRQMLDELELIFLLGEDGLEIIFEVDRRARGLRGWLEEMYNDGEQLVRVRFSQSELEDAEELEEVLEEILDQYVE,soluble
15,MSFLSNSLNRISFNSFSNMHSLLSSKFQEHYNDIYDWNGNIENIYKANTFISIGYKLLYPLGVLEANFDKEKLKKFLFRICSYYNDIPYHTSLHAAQVAHFSKSMLFMLDMNHKISAIDEFCLHISSLCHDTGHPGLNNYFLINSENNLALTYNDNSVLENYHCSLLFKTLKNPNYNIFEHYPYHIFISCKKNIIKAILSTDMKNHFEYISDFRTSKEFIDYDNLSNDQIWQIFCLILKASDIGHSTLEWNKHLEWTLKINEEFYLQGLLEKSLNIQNSFLCDINTMNKLALSQIDFLKHLCIPLFNELNYICKNNDVYTHCIQPIENNIERWESHKNDNQNLGLHEKYKEENLLSKLELIKFE,not soluble
16,MSFSERLLAAWYQGHPALALLRPLEALYRRVANGRRADFLSGRKPAYRAPLPVLVVGNITVGGTGKTPMILWMIEHCRARGLRVGVISRGYGARPPTTPWRVRAEQDAAEAGDEPLMIVRRSGVPLMIDPDRPRALQALLAEEQLDLVLCDDGLQHYRLARDLELVLIDAARGLGNGRCLPAGPLREPAERLESVDALLYNGADEDPDGGYAFRLQPTALINLQSGERRPLEHFPAGQEVHALAGIGNPQRFFRTLEALHWRAIPHAFPDHATYTAAELAFSPPLPLLMTEKDAVKCRAFAAADWWYLAVDAVPSPAFVAWFDARLEH,not soluble
17,MSFTDNWSDEEFIRQMKELIGNEGDMHVTCNHSEGEQVTETHVTREKALWYRHNGDREGMLVCLNLSRVEVLNQRYFLGPCPF,not soluble
18,MSGCDAWEGDCCSRRCGAQDKEHPRYLIPELCKQFYHLGWVTGTGGGISLKHGDEIYIAPSGVQKERIQPEDMFVYDINEKDISGPSPSKKLKKSQCTPLFMNAYTMRGAGAVIHTHSKAAVMATLLFPGREFKITHQEMIKGIKKCTSGGYYRYDDMLVVPIIENTPEEKDLKDRMAHAMNEYPDSCAVLVRRHGVYVWGETWEKAKTMCECYDYLFDIAVSMKKVGLDPSQLPVGENGIV,soluble
